Assay results published in patent US20030235857A1 (WHITEHEAD INSTITUTE FOR BIOMEDICAL RESEARCH A DELAWARE, published 2003).

B1: Tpk3 fused to the Gal4 DNA binding domain (enzyme, UniProt P04386 1-147, looked up)
chain: MKLLSSIEQACDICRLKKLKCSKEKPKCAKCLKNNWECRYSPKTKRSPLTRAHLTEVESRLERLEQLFLLIFPREDLDMILKMDSLQDIKALLTGLFVQDNVNKDAVTDRLASVETDMPLTLRQHRISATSSSEESSNKGQRQLTVSMYVDPMNNNEIRKLSITAKTETTPDNVGQDIPVNAHSVHEECSSNTPVEINGRNSGKLKEEASAGICLVKKPMLQYRDTSGKYSLSDFQILRTLGTGSFGRVHLIRSNHNGRFYALKTLKKHTIVKLKQVEHTNDERRMLSIVSHPFIIRMWGTFQDSQQVFMVMDYIEGGELFSLLRKSQRFPNPVAKFYAAEVCLALEYLHSKDIIYRDLKPENILLDKNGHIKITDFGFAKYVPDVTYTLCGTPDYIAPEVVSTKPYNKSVDWWSFGVLIYEMLAGYTPFYNSNTMKTYENILNAELKFPPFFHPDAQDLLKKLITRDLSERLGNLQNGSEDVKNHPWFNEVIWEKLLARYIETPYEPPIQQGQGDTSQFDRYPEEEFNYGIQGEDPYMDLMKEF
notes: Two-hybrid bait used for retesting positive clones; also called YKL166c
B3: Tpk1 fused to the Gal4 DNA binding domain (enzyme, UniProt P04386 1-147, looked up)
chain: MKLLSSIEQACDICRLKKLKCSKEKPKCAKCLKNNWECRYSPKTKRSPLTRAHLTEVESRLERLEQLFLLIFPREDLDMILKMDSLQDIKALLTGLFVQDNVNKDAVTDRLASVETDMPLTLRQHRISATSSSEESSNKGQRQLTVSMSTEEQNGGGQKSLDDRQGEESQKGETSERETTATESGNESKSVEKEGGETQEKPKQPHVTYYNEEQYKQFIAQARVTSGKYSLQDFQILRTLGTGSFGRVHLIRSRHNGRYYAMKVLKKEIVVRLKQVEHTNDERLMLSIVTHPFIIRMWGTFQDAQQIFMIMDYIEGGELFSLLRKSQRFPNPVAKFYAAEVCLALEYLHSKDIIYRDLKPENILLDKNGHIKITDFGFAKYVPDVTYTLCGTPDYIAPEVVSTKPYNKSIDWWSFGILIYEMLAGYTPFYDSNTMKTYEKILNAELRFPPFFNEDVKDLLSRLITRDLSQRLGNLQNGTEDVKNHPWFKEVVWEKLLSRNIETPYEPPIQQGQGDTSQFDKYPEEDINYGVQGEDPYADLFRDF
notes: Two-hybrid bait used for retesting positive clones

How the values were obtained:
Test in all cases: yeast two-hybrid, GAL4-ADE2 reporter, growth without adenine
[1] = biological target: T1, Sfl1 fused to the Gal4 activation domain (Saccharomyces cerevisiae, UniProt P20134 1-766, limits assumed)
T1 construct: also called YOR140w
T1 sequence (looked up): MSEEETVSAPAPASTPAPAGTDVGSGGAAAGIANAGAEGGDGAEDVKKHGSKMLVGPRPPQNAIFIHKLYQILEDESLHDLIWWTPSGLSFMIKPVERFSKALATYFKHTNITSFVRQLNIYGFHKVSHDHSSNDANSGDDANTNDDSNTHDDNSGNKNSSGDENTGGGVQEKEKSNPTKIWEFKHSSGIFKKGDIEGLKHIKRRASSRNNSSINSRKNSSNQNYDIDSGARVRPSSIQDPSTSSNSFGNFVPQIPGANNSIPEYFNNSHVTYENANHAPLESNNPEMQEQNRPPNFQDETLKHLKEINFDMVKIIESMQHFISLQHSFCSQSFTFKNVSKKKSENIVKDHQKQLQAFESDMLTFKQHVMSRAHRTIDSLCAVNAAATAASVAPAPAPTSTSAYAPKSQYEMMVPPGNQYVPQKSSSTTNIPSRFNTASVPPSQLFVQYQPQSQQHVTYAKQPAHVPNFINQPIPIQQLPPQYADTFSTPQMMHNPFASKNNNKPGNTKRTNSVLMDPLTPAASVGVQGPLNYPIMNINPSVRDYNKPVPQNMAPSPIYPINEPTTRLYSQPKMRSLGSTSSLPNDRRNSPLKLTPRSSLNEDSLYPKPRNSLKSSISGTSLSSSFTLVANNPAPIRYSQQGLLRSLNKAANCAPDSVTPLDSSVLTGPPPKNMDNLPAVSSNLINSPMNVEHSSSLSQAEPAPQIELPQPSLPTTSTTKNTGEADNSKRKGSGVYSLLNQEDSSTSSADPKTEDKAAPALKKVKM
Source text: (§1) Other additional members of these signal transduction cascades are identified through a variety of standard techniques. First, enhancers and suppressors of phenotypes of mutant strains are isolated using standard techniques known to those skilled in the art (Ausubel, supra). Second, proteins which interact with pathway members are isolated using yeast two-hybrid methods (Fields and Song, Nature 1989, 340:245-246; Chien et al., Proc. Natl. Acad. Sci. USA 1991, 88:9578-9582; Brent and Finley, Annu. Rev. Genet. 1997, 31:663-704). In one example, proteins which specifically interact with an A kinase catalytic subunit Tpk2, and not with related proteins Tpk1 and Tpk3 were identified and shown to be important for pseudohyphal development. […] Similarly, haploid tpk2 mutants were defective for invasive growth and tpk3 mutants were hyperinvasive (FIG. 2A). tpk1 mutants were indistinguishable from wild-type strains as both haploids and diploids. The accentuated filamentation and invasion phenotypes of tpk3 mutants required a functional Tpk2 as tpk2 tpk3 mutants had the same phenotype as tpk2 single mutants. As Tpk2 appeared to be uniquely required for pseudohyphal growth, we used a two-hybrid screen to identify proteins that interact specifically with Tpk2. The intact open reading frame of TPK2 was fused to coding sequence for the Gal4 DNA binding domain and used to screen a library of yeast genomic fragments fused to coding sequence for the Gal4 transcriptional activation domain. Activation of the GAL4-ADE2 reporter, leading to adenine-independent growth of an ade-strain was taken as preliminary evidence for an interaction between the Gal4 DNA binding domain:Tpk2 fusion and the Tpk2 interacting protein fused to the Gal4 activation domain. Positive clones were then retested in the two-hybrid assay with Tpk1, Tpk2, Tpk3, or Dph1 fused to the Gal4 DNA binding domain. DPH1, a gene required for diphthamide biosynthesis, as used to control for interactions that were not specific to the PKA isoforms.

[2] = biological target: B3
Source text: as §1

[3] = biological target: B1
Source text: as §1

Binder: B1
- binding result [1]: no binding

B2: Mga1 fused to the Gal4 activation domain (other, Saccharomyces cerevisiae, UniProt P53050 1-456, looked up, not shown: large carriers)
chain: MQPKTFVHQLHAILLEPEVNKWIYWSPTDNTVFFLKPYDPNFSTHVLKRYFKHGNVNSFVRQLHMYGFHKLSHPSPDQSSANNGNVKELVEWKFTHPSGFFFKEANAGILNKIQRKSTGVGKDGKRKNILSPISVSYVDASRLNVLSQQSGPVSAREPSNMFMGSPVHYSTSQSPPHISIPQQQQSSGPYLISSLPPQQPTVNMMRRQSISARMMNSYDYPNQFSTQDSIVQPQQPQQVLSPQALSGPPMKKSGTLSSTDDLKTTSLPIVNYPMPYHPGAFAQQQQQQQQPLPTVPPYSSYSTPFPSMMNSLSNSASNSPALGVCNNNVTLPKKSNISERQALDNHIQTLKNSLSTITDLIEKHINSASQDENKTLTNDAMNKDLRTSLSLLQNSKEEIIQLESKWMSMQSVKTTALPLQETTNTSSTLTSLTSSIIPKSIPIITKGEVATKPASY
notes: also called YGR249w
- binding result [2]: no binding
- binding result [3]: no binding

Binder: B3
- binding result [1]: no binding
